Reference: the MegaScale stability set (Tsuboyama et al. 2023)

B1: 2K2A (parent)
chain: ELREAFRLYDKEGNGYISTDVMREILAELDETLSSEDLDAMIDEIDADGSGTVDFEEFMGVMT

Variants of: B1
Assay: folding stability dG (cDNA display proteolysis); higher = more stable
Conditions: PBS, room temperature

Folding stability dG [kcal/mol]: each site, then its substitutions
M62: I 1.48, D 0.171, E -0.063, R 0.711, N 0.258, A 0.857, Y 1.58, G 0.514, W 1.83, K 0.674, F 2.04, T 0.559, C 1.81, Q 0.539, P 0.128, H 0.762, L 1.5, S 0.277, V 1.34
E56: L 1.88, K 1.77, T 1.69, D 1.84, G 1.56, A 1.78, F 2.04, Q 1.9, P 1.21, W 1.99, M 1.64, H 1.88, I 1.87, N 1.86, R 1.78, V 1.75, C 1.92, Y 2.02, S 1.75
V61: I 2.12, Y 2.69, M 1.83, L 2.06, S 1.26, F 2.75, D -0.74, K 1.32, R 1.16, A 2.2, W 3.03, P 0.265, H 1.67, C 1.86, T 1.21, N 0.566, G 1.49, E 0.207, Q 0.902
T63: E 1.66, A 1.97, D 1.26, C 2.18, F 1.56
D54: M 1.76, T 2.36, S 2.43, I 1.27, R 1.73, Y 2, E 1.33, V 1.38, L 1.43, H 1.68, N 2.26, F 1.79, G 2.07, P 1.14, K 1.57, W 1.72, Q 1.63
E57: Y 1.58, T 2.46, H 2.18, M 2.37, N 2, G 2.33, A 2.47, L 1.9, D 1.72, S 2.39, R 2.48, V 2.26, F 1.47, I 1.97, C 2.01, W 1.55, P 0.106, Q 2.48, K 2.58
G60: C 2.25, R 2.82, L 2.46, K 2.69, Y 2.57, M 2.5, D 1.75, N 2.15, A 2.53, W 2.79, T 2.37, I 2.39, Q 2.32, F 2.49, V 2.13, E 1.85, H 2.48, S 2.29, P 0.712
M59: E 1.41, T 1.49, H 1.2, P -0.961, A 2.04, W 1.4, Q 1.65, N 0.889, K 1.81, D 0.144, R 1.96, G 0.537, Y 2.02, S 1.77, F 2.03, C 1.7, V 2.18, L 1.91, I 2.03
F58: T -0.411, Q -0.946, M 0.426, L 0.779, E -0.986, N -0.854, W 1.69, I 0.406, A 0.332, V 0.336, C 0.529, Y 1.6
F55: W 1.75, L 1.66, K 0.132, I 1.47, Y 1.88, H 0.24, V 1.32, E 1.33, D -0.867, N -0.55, G -0.263, Q 0.578, A 0.686, S 0.161, C 0.683, T 0.148, M 1.31, P -0.144, R 0.375
